Test results from patent EP2305804B1.
Values joined by “and” are separate entries in the source; they are usually repeats but may differ in a detail not shown here. Identical values can stand only once.

Target: Rabbit GH receptor, full length, stably expressed on murine FDC-P1 cells (GH-R4 cell line) (rabbit) (UniProt P19941)
Assay: cell-based or functional assay

Sequence of UniProt P19941 (P19941 19-638): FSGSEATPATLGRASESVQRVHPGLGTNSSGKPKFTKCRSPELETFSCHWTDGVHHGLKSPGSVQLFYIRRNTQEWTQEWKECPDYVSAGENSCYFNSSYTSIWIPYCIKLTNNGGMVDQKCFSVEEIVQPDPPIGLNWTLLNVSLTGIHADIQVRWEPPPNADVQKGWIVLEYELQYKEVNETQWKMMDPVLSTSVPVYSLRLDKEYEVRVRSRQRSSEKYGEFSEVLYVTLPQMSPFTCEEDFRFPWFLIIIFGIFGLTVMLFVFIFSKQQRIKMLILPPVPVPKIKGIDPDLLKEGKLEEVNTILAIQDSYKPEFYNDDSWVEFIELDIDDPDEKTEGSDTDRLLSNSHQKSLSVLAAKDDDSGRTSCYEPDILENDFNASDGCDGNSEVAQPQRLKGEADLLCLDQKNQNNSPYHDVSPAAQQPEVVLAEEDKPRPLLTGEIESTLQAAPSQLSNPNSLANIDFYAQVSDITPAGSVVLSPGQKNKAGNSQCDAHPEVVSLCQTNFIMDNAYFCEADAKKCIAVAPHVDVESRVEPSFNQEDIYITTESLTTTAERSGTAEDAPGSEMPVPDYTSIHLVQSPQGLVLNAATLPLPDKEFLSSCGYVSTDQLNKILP

| EC50, individual experiment, MTS cell proliferation assay, GH-R4 cells | Mean EC50, MTS cell proliferation assay, GH-R4 cells [ng/mL] | Mean EC50 in molar units, MTS cell proliferation assay, GH-R4 cells [nM] | Substance | also measured |
| --- | --- | --- | --- | --- |
| 0.8 ng/mL and 1.1 ng/mL | 0.8 |  | Wild-type recombinant human growth hormone (rhGH), secreted to the E. coli periplasm with the stII signal sequence (from UniProt P01241 27-217) (ligand) |  |
|  | 1.6 | 0.07 | PEG-T3C, monoPEGylated hGH cysteine mutein T3C (5 kDa maleimide-PEG) (from UniProt P01241 27-217) (ligand) |  |

The next lines start with the substance.

| Substance | EC50, individual experiment, MTS cell proliferation assay, GH-R4 cells | Mean EC50, MTS cell proliferation assay, GH-R4 cells [ng/mL] | Mean EC50 in molar units, MTS cell proliferation assay, GH-R4 cells [nM] | also measured |
| --- | --- | --- | --- | --- |
| PEG-S144C, monoPEGylated hGH cysteine mutein S144C (5 kDa maleimide-PEG) (from UniProt P01241 27-217) (ligand) | 40 ng/mL and 45 ng/mL | 43 | 2 |  |
| hGH cysteine mutein S144C (from UniProt P01241 27-217) (ligand) |  | 1.6 |  |  |
| hGH cysteine mutein T148C (from UniProt P01241 27-217) (ligand) |  |  |  | EC50, individual experiment, MTS cell proliferation assay, GH-R4 cells (T148C-lotA): 0.4 ng/mL and 0.5 ng/mL; EC50, individual experiment, MTS cell proliferation assay, GH-R4 cells (T148C-lotB): 1.5 ng/mL and 1.9 ng/mL and 3.1 ng/mL; Mean EC50, MTS cell proliferation assay, GH-R4 cells (T148C-lotA): 0.5 ng/mL; Mean EC50, MTS cell proliferation assay, GH-R4 cells (T148C-lotB): 2.5 ng/mL |
| hGH cysteine mutein T3C, disulfide-linked homodimer (from UniProt P01241 27-217) (ligand) |  |  |  | Mean EC50, MTS cell proliferation assay, GH-R4 cells (T3C dimer): 1.4 ng/mL |
